We go through one molecule from article PMC4140855, “Production of an Attenuated Phenol-Soluble Modulin Variant Unique to the MRSA Clonal Complex 30 Increases Severity of Bloodstream Infection” (PLoS Pathogens, 2014).

Assay in all cases: Ca2+ flux in FPR-transfected HL60 cells, one-site binding model
(A change in cytosolic calcium serves as a functional read-out for many receptors and channels.)

One assay has as its target T1, FPR2 (Homo sapiens, UniProt P25090).
T1 chain: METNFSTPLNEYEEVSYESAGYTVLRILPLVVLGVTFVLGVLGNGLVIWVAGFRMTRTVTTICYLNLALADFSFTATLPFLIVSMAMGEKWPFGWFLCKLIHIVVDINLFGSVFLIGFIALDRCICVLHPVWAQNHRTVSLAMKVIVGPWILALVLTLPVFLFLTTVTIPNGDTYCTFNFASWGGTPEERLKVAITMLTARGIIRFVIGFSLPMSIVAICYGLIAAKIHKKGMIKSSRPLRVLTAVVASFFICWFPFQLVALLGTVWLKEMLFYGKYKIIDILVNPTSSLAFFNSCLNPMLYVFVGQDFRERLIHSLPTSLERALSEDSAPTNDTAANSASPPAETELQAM

For another assay, the target named is T2, FPR1 (Homo sapiens, UniProt P21462).
T2 chain: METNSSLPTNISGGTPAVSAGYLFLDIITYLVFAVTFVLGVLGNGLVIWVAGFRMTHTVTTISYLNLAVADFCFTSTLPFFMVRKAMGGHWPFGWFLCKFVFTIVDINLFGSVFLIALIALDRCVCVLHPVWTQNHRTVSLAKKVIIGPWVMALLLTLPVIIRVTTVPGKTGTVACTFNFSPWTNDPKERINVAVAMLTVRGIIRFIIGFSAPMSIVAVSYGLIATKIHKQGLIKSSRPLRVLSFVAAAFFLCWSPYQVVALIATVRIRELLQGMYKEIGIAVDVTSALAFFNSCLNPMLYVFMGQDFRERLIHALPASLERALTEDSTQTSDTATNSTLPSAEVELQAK

A further assay deals with T3, FPR3 (Homo sapiens, UniProt P25089).
T3 chain: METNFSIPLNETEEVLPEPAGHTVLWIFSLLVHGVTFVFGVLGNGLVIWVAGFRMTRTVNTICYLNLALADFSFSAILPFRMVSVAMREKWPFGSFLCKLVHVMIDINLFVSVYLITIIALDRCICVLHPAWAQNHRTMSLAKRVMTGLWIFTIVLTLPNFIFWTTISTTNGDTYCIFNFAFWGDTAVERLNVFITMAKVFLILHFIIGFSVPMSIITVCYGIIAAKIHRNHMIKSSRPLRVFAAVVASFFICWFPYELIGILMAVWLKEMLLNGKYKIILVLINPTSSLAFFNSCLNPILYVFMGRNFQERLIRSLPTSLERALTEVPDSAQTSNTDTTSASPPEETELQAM

Where no end group is shown, it is not given here. The star is where a group is joined. For = O=C*

B1: PSMα3 (peptide)
chain: For-MEFVAKLFKFFKDLLGKFLGNN
For orientation: Kd means a measure of binding affinity in units of concentration. A lower Kd goes with tighter binding. For B1, the dissociation constant (Kd) with FPR2 turned out to be 11.9 nM; in the assay with FPR1 it was 616 nM; in the assay with FPR3, 1380 nM.
